Assay results from CN105330739A.

Legend:
[1] = target: huVEGF 165 (human); test: indirect ELISA on coated huVEGF, antibody at 16 ng/ml
[2] = target: huVEGF 165 (human); test: indirect ELISA on coated huVEGF, antibody at 80 ng/ml
[3] = target: huVEGF 165 (human); test: indirect ELISA on coated huVEGF, antibody at 3.2 ng/ml
[4] = target: huVEGF 165 (human); test: indirect ELISA on coated huVEGF, antibody at 400 ng/ml
[5] = target: huVEGF 165 (human); test: indirect ELISA on coated huVEGF, antibody at 0.64 ng/ml
[6] = target: huVEGF 165 (human); test: indirect ELISA on coated huVEGF, antibody at 0.128 ng/ml
[7] = target: huVEGF 165 (human); test: indirect ELISA on coated huVEGF, antibody at 0.0256 ng/ml
[8] = target: huVEGF 165 (human); test: indirect ELISA on coated huVEGF, antibody at 0.00512 ng/ml
[9] = target: huVEGF 165 (human); test: indirect ELISA, huVEGF coated at 0.5 ug/ml, four-parameter fit

huVEGF 165 (human), sequence (chain, as listed by the source, form in doubt): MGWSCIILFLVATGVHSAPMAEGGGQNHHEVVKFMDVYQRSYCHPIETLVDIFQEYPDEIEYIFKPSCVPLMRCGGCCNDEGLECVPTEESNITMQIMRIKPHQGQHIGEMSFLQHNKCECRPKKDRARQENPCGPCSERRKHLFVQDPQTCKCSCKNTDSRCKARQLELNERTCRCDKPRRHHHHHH

B1: NevegiMab抗体 (antibody, V domains shown)
VH: EVKLQESGPELKKPGETVKISCKASGYTFTNYGLNWVKQAPGKGLKWMGWINTYTGEPTYADDFKGRFAFSLETSASTAYLQINNLKNEDMATYFCAKYGITYEWYFDVWGAGTTVTVSS
VL: DIVLTQSTSSLSASLGDRVTISCRASQDISNSLNWYQQKPNGTVILLIYYTSRLHSGVPSRFSGSGSGAVYSLTISDLEQEDIATYFCQQGNTFPWTFGGGTKLEIKR
- OD450 复孔1 [1]: 3 OD450
- OD450 复孔2 [1]: 2.9 OD450
- OD平均 [1]: 2.95 OD450
- OD450 复孔1 [2]: 3.33 OD450
- OD450 复孔2 [2]: 3.31 OD450
- OD平均 [2]: 3.32 OD450
- OD450 复孔1 [3]: 1.83 OD450
- OD450 复孔2 [3]: 1.92 OD450
- OD平均 [3]: 1.87 OD450
- OD450 复孔1 [4]: 3.53 OD450
- OD450 复孔2 [4]: 3.44 OD450
- OD平均 [4]: 3.49 OD450
- OD450 复孔1 [5]: 0.572 OD450
- OD450 复孔2 [5]: 0.614 OD450
- OD平均 [5]: 0.59 OD450
- OD450 复孔1 [6]: 0.208 OD450
- OD450 复孔2 [6]: 0.214 OD450
- OD平均 [6]: 0.21 OD450
- OD450 复孔1 [7]: 0.132 OD450
- OD450 复孔2 [7]: 0.135 OD450
- OD平均 [7]: 0.13 OD450
- OD450 复孔1 [8]: 0.115 OD450
- OD450 复孔2 [8]: 0.118 OD450
- OD平均 [8]: 0.12 OD450
- EC50 [9]: 20 pM
